# Measured values taken from paper PMC4643051.
# B1: unnamed (parent)
# chain 1: DSGCVVSWKNKELKCGSGIFITDNVHTWTEQYKFQPESPSKLASAIQKAHEEGICGIRSVTRLENLMWKQITPELNHILSENEVKLTIMTGDIKGIMQAGKRSLRPQPTELKYSWKTWGKAKMLSTESHNQTFLIDGPETAECPNTNRAWNSLEVEDYGFGVFTTNIWLKLKEKQDVFCDSKLMSAAIKDNRAVHADMGYWIESALNDTWKIEKASFIEVKNCHWPKSHTLWSNGVLESEMIIPKNLAGPVSQHNYRPGYHTQITGPWHLGKLEMDFDFCDGTTVVVTEDCGNRGPSLRTTTASGKLITEWCCRSCTLPPLRYRGEDGCWYGMEIRPLKEKEENLVNSLVTA
# chain 2: FHLTTRNGEPHMIVSRQEKGKSLLFKTEDGVNMCTLMAMDLGELCEDTITYKCPLLRQNEPEDIDCWCNSTSTWVTYGTCTTMGEHRRQKRSVALVPHVGMGLETRTETWMSSEGAWKHVQRIETWILRHPGFTMMAAILAYTIGTTHFQRALIFILLTAVTPSMT
# Variants of: B1
# Details: with partner chain of the complex shown;; read off a plot
row,Variant,ratio to parent
1,chain 1 D180A,1.5 fold of WT
2,chain 1 S114A,0.27 fold of WT
3,chain 1 T117A,1.5 fold of WT
4,chain 1 T301A,1.7 fold of WT
5,chain 1 W115A,0.45 fold of WT
